Measurements: US20230220042A1 (SHANGHAI JIAO TONG UNIVERSITY SCHOOL OF MEDICINE, published 2023)
Changes are numbered by the printed parent chain. In names and notes the source's numbering stands.

B1: human IgG2 anti-mouse CD40 surface displayed antibody, Fc mutant P271G (antibody, name in EU numbering)
light chain (with the P2A rest): DTVLTQSPALAVSPGERVTISCRASDSVSTLMHWYQQKPGQQPKLLIYLASHLESGVPARFSGSGSGTDFTLTIDPVEADDTATYYCQQSWNDPWTFGGGTKLELKRTVAAPSVFIFPPSDEQLKSGTASVVCLLNNFYPREAKVQWKVDNALQSGNSQESVTEQDSKDSTYSLSSTLTLSKADYEKHKVYACEVTHQGLSSPVTKSFNRGECGSGATNFSLLKQAGDVEENPG
heavy chain: EVQLVESDGGLVQPGRSLKLPCAASGFTFSDYYMAWVRQAPTKGLEWVASISYDGSSTYYRDSVKGRFTISRDNAKSTLYLQMDSLRSEDTATYYCGRHSSYFDYWGQGVMVTVSSASTKGPSVFPLAPCSRSTSESTAALGCLVKDYFPEPVTVSWNSGALTSGVHTFPAVLQSSGLYSLSSVVTVPSSNFGTQTYTCNVDHKPSNTKVDKTVERKCCVECPPCPAPPVAGPSVFLFPPKPKDTLMISRTPEVTCVVVDVSHEDGEVQFNWYVDGVEVHNAKTKPREEQFNSTFRVVSVLTVVHQDWLNGKEYKCKVSNKGLPAPIEKTISKTKGQPREPQVYTLPPSREEMTKNQVSLTCLVKGFYPSDIAVEWESNGQPENNYKTTPPMLDSDGSFFLYSKLTVDKSRWQQGNVFSCSVMHEALHNHYTQKSLSLSPGKLEPPPSTVSNMATVAVLVVLGAAIVTGAVVAFVMKMRRRNTGGKGGDYALAPGSQTSDLSLPDCKVMVHDPHSLA
notes: as m1; positions are Eu numbers; copies: 2 + 2
B2: human IgG2 anti-mouse CD40 surface displayed antibody, S267E/S298G (antibody, name in EU numbering)
light chain (with the P2A rest): B1 light chain (with the P2A rest)
heavy chain: B1 heavy chain with S262E, G266P, S293G
notes: As m1 with the Fc mutations
B3: human IgG2 anti-mouse CD40 surface displayed antibody, Fc mutant P271I (antibody, name in EU numbering)
light chain (with the P2A rest): B1 light chain (with the P2A rest)
heavy chain: B1 heavy chain with G266I
notes: as for B1
B4: human IgG2 anti-mouse CD40 surface displayed antibody, Fc mutant P271G/I332L (antibody, name in EU numbering)
light chain (with the P2A rest): B1 light chain (with the P2A rest)
heavy chain: B1 heavy chain with I327L
notes: as for B1
B5: human IgG2 anti-mouse CD40 surface displayed antibody, Fc mutant P238Q/S267E (antibody, name in EU numbering)
light chain (with the P2A rest): B1 light chain (with the P2A rest)
heavy chain: B1 heavy chain with P233Q, S262E, G266P
notes: as for B1
B6: human IgG2 anti-mouse CD40 surface displayed antibody, Fc mutant P271S (antibody, name in EU numbering)
light chain (with the P2A rest): B1 light chain (with the P2A rest)
heavy chain: B1 heavy chain with G266S
notes: as for B1
B7: human IgG2 anti-mouse CD40 surface displayed antibody, Fc mutant L328A (antibody, name in EU numbering)
light chain (with the P2A rest): B1 light chain (with the P2A rest)
heavy chain: B1 heavy chain with G266P, L323A
notes: as for B1
B8: human IgG2 anti-mouse CD40 surface displayed antibody, Fc mutant S267E/P329R (antibody, name in EU numbering)
light chain (with the P2A rest): B1 light chain (with the P2A rest)
heavy chain: B1 heavy chain with S262E, G266P, P324R
notes: as for B1
B9: human IgG2 anti-mouse CD40 surface displayed antibody, Fc mutant L328P (antibody, name in EU numbering)
light chain (with the P2A rest): B1 light chain (with the P2A rest)
heavy chain: B1 heavy chain with G266P, L323P
notes: as for B1
B10: human IgG2 anti-mouse CD40 surface displayed antibody, L328W (antibody, name in EU numbering)
light chain (with the P2A rest): B1 light chain (with the P2A rest)
heavy chain: B1 heavy chain with G266P, L323W
notes: As m1 with the Fc mutation
B11: human IgG2 anti-mouse CD40 surface displayed antibody, P233G/S267E (antibody)
light chain (with the P2A rest): B1 light chain (with the P2A rest)
heavy: B1 heavy chain with P229G, S262E, G266P
notes: As m1 with the Fc mutations; copies: 2 + 2
B12: human IgG2 anti-mouse CD40 surface displayed antibody, Fc mutant H268N (antibody, name in EU numbering)
light chain (with the P2A rest): B1 light chain (with the P2A rest)
heavy chain: B1 heavy chain with H263N, G266P
notes: as for B1
B13: human IgG2 anti-mouse CD40 surface displayed antibody, Fc mutant S267E (antibody, name in EU numbering)
light chain (with the P2A rest): B1 light chain (with the P2A rest)
heavy chain: B1 heavy chain with S262E, G266P
notes: as for B1
B14: human IgG2 anti-mouse CD40 surface displayed antibody, Fc mutant P271V (antibody, name in EU numbering)
light chain (with the P2A rest): B1 light chain (with the P2A rest)
heavy chain: B1 heavy chain with G266V
notes: as for B1
B15: human IgG2 anti-mouse CD40 surface displayed antibody, Fc mutant P271L (antibody, name in EU numbering)
light chain (with the P2A rest): B1 light chain (with the P2A rest)
heavy chain: B1 heavy chain with G266L
notes: as for B1
B16: human IgG2 anti-mouse CD40 surface displayed antibody, Fc mutant P271A (antibody, name in EU numbering)
light chain (with the P2A rest): B1 light chain (with the P2A rest)
heavy chain: B1 heavy chain with G266A
notes: as for B1
B17: human IgG2 anti-mouse CD40 surface displayed antibody, Fc mutant L328W (antibody, name in EU numbering)
light chain (with the P2A rest): B1 light chain (with the P2A rest)
heavy chain: B1 heavy chain with G266P, L323W
notes: as for B1
B18: human IgG2 anti-mouse CD40 surface displayed antibody, Fc mutant S267N (antibody, name in EU numbering)
light chain (with the P2A rest): B1 light chain (with the P2A rest)
heavy chain: B1 heavy chain with S262N, G266P
notes: as for B1
B19: human IgG2 anti-mouse CD40 surface displayed antibody, Fc mutant S267W (antibody, name in EU numbering)
light chain (with the P2A rest): B1 light chain (with the P2A rest)
heavy chain: B1 heavy chain with S262W, G266P
notes: as for B1

Experiments:
[1] = target: T1, Biotin-FcγRIIB (human, UniProt P31994 43-217, limits assumed, biotin-labelled); assay: magnetic sorting on biotin-FcγRIIB with unlabelled activating FcγRs, NGS; LibraryMix #4
T1 construct: Bought, biotin-labelled; used at 1 µg/ml for staining and sorting; also called human FcγRIIB; CD32b
T1 sequence (looked up): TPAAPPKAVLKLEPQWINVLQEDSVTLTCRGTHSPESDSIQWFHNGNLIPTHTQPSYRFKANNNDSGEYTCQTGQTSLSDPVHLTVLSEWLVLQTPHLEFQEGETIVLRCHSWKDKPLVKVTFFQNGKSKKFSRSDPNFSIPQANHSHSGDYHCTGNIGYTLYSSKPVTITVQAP
Experimental: (§1) 3T3 cells were collected by trypsin digestion, and a single cell suspension was prepared. […] The cells were incubated for 15 minutes on ice and then washed twice with MACS buffer and re-suspended in 100 μl MACS buffer. Twenty-five μl anti-Biotin magnetic beads were added, and the cells were incubated for 15 minutes on ice and then washed once with MACS buffer and re-suspended to 500 μl, and added to the LS column put in the magnetic field. The effluent was collected, washed with 3 mL of MACS buffer and collected; The LS column was then removed out of the magnetic field, and 5 mL of MACS buffer was used to rapidly elute the remaining cells from the sorting column to collect positive cells, which are the high I/A ratio cells.
(§2) The high-FcγRIIB-affinity cells obtained from the above flow cytometry sorting are further sorted by magnetic-activated sorting. The cells are incubated with the mixture of Biotin-labeled FcγRIIB and non-labeled activating FcγRs, and then the labeled cells are sorted by anti-Biotin magnetic beads. The enrichment ratios after sorting relative to before sorting are analyzed by NGS.

[2] = target: T1, Biotin-FcγRIIB; assay: FACS sorting of displayed Fc library on biotin-FcγRIIB, NGS
[3] = target: T2, Biotin-FcγRIIB (human, UniProt P31994 43-217, limits assumed, biotin label); assay: NGS of 3T3 display library IgG2_C01 flow-sorted for FcγRIIB binding
T2 construct: Soluble labelled protein used to stain and sort the display cells; also called human FcγRIIB; CD32b
T2 sequence (looked up): T1 sequence (looked up)
Source text: Then flow cytometry is used for sorting the cells with high affinity to FcγRIIB for two to three rounds. […] IgG2_C01 is a combined mutation (Type I) library having at most 1 mutation in each of the four regions of P233-V240, V266-P271, S298-T299, and G327-I332; IgG2_C02 is a cell library made by combining the combined mutation (Type II) libraries of four regions of P233-V240, V266-P271, S298-T299 and G327-I332 together and transferring it into 3T3 cells.

[4] = target: T1, Biotin-FcγRIIB; assay: magnetic sorting on biotin-FcγRIIB with unlabelled activating FcγRs, NGS; Library2
Experimental: as §1, §2

| Binder | Enrichment factor (percentage after sorting/percentage before sorting) [1] | Increased factor (mutation enrichment factor/wild-type enrichment factor) [1] | Percentage after sorting/unbinding percentage [1] | Percentage before sorting/unbinding percentage [1] | Enrichment factor (percentage after sorting/percentage before sorting) [4] | Increased factor (mutation enrichment factor/wild-type enrichment factor) [4] | Percentage after sorting/unbinding percentage [4] | Percentage before sorting/unbinding percentage [4] | further results |
| --- | --- | --- | --- | --- | --- | --- | --- | --- | --- |
| B1 | 3.66 | 3.89 | 19 | 5.18 |  |  |  |  | Increased factor b Site 1 (point mutation/wild-type) [2]: 4.7; Increased factor b Site 2 (point mutation/wild-type) [2]: 4.7 |
| B2 |  |  |  |  |  |  |  |  | enrichment factor, percentage after 1st sorting/percentage before sorting [3]: 9.16 ratio; enrichment factor, percentage after 2nd sorting/percentage after 1st sorting [3]: 19.2 ratio; enrichment factor, percentage after 2nd sorting/percentage before sorting [3]: 176 ratio; increased factor, mutant enrichment factor/wild-type enrichment factor [3]: 207 ratio; percentage after 1st sorting [3]: 0.01%; percentage after 2nd sorting [3]: 0.25% |
| B3 |  |  |  |  | 2.63 | 3.17 |  |  |  |
| B4 | 2.82 | 3 | 16 | 5.66 |  |  |  |  |  |
| B5 | 3.7 | 3.93 | 4.36 | 1.18 |  |  |  |  |  |
| B6 |  |  |  |  | 2.74 | 3.3 | 22.2 | 8.1 |  |
| B7 | 3.21 | 3.41 |  |  |  |  |  |  |  |
| B8 | 4.85 | 5.16 | 6.17 | 1.27 |  |  |  |  |  |
| B9 | 2.16 | 2.3 | 29.6 | 13.7 |  |  |  |  |  |
| B10 |  |  |  |  |  |  |  |  | enrichment factor, percentage after 1st sorting/percentage before sorting [3]: 1.75 ratio; enrichment factor, percentage after 2nd sorting/percentage after 1st sorting [3]: 4.26 ratio; enrichment factor, percentage after 2nd sorting/percentage before sorting [3]: 7.46 ratio; increased factor, mutant enrichment factor/wild-type enrichment factor [3]: 8.78 ratio; percentage after 1st sorting [3]: 0.25%; percentage after 2nd sorting [3]: 1.05% |
| B11 |  |  |  |  |  |  |  |  | enrichment factor, percentage after 1st sorting/percentage before sorting [3]: 3.31 ratio; enrichment factor, percentage after 2nd sorting/percentage after 1st sorting [3]: 5.47 ratio; enrichment factor, percentage after 2nd sorting/percentage before sorting [3]: 18.1 ratio; increased factor, mutant enrichment factor/wild-type enrichment factor [3]: 21.3 ratio; percentage after 1st sorting [3]: 0.01%; percentage after 2nd sorting [3]: 0.05% |
| B12 |  |  |  |  | 2.31 | 2.79 | 662 | 286 |  |
| B13 | 2.86 | 3.04 | 52.6 | 18.4 |  |  |  |  | Increased factor b Site 1 (point mutation/wild-type) [2]: 28.5 |
| B14 |  |  |  |  | 3.52 | 4.24 | 1090 | 311 | Increased factor b Site 2 (point mutation/wild-type) [2]: 0.7 |
| B15 |  |  |  |  | 4.43 | 5.34 | 143 | 32.3 |  |
| B16 |  |  |  |  | 2.77 | 3.33 | 71.2 | 25.7 | Increased factor b Site 1 (point mutation/wild-type) [2]: 0.1 |
| B17 | 4.26 | 4.53 |  |  |  |  |  |  |  |
| B18 |  |  |  |  | 2.91 | 3.51 |  |  |  |
| B19 |  |  |  |  | 1.86 | 2.25 | 52.5 | 28.2 |  |
